According to article doi:10.1101/2022.10.03.510455:

Molecular target: FLAG tagged TSC2 (UniProt P49815)
Test: single molecule pulldown

Chain of UniProt P49815 (P49815 whole entry): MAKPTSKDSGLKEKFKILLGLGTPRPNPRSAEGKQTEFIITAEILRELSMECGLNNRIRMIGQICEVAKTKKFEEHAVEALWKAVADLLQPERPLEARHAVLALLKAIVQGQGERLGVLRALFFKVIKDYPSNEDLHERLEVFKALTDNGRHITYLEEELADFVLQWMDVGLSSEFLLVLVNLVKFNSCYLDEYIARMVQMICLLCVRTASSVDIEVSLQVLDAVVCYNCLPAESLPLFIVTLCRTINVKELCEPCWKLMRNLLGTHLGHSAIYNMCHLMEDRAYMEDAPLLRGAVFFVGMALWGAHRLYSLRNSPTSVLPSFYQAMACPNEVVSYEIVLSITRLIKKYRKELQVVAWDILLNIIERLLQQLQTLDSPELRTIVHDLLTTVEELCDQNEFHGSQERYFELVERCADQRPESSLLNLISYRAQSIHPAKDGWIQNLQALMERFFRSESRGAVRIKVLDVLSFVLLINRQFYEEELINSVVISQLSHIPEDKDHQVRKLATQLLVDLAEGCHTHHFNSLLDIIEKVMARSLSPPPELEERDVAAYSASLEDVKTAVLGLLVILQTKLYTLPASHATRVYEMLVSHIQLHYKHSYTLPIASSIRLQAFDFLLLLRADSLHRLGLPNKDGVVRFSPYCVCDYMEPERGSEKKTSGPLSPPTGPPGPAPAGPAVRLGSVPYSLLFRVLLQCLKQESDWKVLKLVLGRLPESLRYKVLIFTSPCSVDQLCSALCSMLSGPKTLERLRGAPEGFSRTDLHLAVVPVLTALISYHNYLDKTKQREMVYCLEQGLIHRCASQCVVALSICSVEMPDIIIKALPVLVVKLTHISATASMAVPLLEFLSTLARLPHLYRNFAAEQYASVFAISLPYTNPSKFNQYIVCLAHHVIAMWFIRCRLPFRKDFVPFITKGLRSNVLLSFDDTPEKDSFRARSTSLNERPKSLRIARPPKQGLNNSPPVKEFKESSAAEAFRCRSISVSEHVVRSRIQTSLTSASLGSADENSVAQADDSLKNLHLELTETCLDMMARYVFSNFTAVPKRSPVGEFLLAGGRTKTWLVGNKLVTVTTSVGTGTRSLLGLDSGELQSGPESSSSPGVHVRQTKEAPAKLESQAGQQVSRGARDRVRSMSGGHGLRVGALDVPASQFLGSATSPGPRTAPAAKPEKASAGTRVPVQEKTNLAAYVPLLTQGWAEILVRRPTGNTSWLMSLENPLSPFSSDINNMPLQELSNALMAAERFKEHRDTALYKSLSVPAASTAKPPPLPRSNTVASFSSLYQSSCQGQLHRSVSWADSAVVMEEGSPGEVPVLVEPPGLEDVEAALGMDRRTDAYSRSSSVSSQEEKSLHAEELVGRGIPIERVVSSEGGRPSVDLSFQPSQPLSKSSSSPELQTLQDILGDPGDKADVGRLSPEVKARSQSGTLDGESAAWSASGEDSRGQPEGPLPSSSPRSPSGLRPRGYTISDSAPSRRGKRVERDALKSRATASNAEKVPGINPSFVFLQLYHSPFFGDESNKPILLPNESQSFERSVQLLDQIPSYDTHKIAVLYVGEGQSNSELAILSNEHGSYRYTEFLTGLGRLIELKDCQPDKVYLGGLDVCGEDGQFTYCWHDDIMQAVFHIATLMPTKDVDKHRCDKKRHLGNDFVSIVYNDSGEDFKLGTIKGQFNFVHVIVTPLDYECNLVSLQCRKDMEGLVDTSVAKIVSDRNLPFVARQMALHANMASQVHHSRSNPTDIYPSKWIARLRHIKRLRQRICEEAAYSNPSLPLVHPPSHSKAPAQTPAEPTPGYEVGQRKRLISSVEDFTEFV

Substance: recombinant α-syn PFF (from UniProt P37840 1-140) (natural protein)
- IC50: 500 pM
